This passage reports stoichiometry N results from article PMC2173478.

In general, stoichiometry N refers to the number of molecules, sites or subunits per partner or assembly.

The target in the assay is cytochrome c. As to the kind of experiment: SEC. A general note: In gel filtration, larger molecules generally elute earlier.

The substance cytochrome c (natural protein) gave a stoichiometry N of 2.
